Results on one molecule are retold here after article PMC11109279, “Heliorhodopsin-mediated light-modulation of ABC transporter” (Nature Communications, 2024).

Common to all, as to test: ITC; OcHeR injected into the Omr protein; 25 °C, 500 rpm; buffer SD; MicroCal ITC200; one site binding model (sequential binding site model for R233Q); perfect saturation was not achieved
Common to all, as to conditions: both partners purified

The target of experiment [1] is T1, NBD-truncated OmrDE (OmrD^tcE^tc) (Omithinimicrobium cerasi strain USBA17B2).
T1 chain 1: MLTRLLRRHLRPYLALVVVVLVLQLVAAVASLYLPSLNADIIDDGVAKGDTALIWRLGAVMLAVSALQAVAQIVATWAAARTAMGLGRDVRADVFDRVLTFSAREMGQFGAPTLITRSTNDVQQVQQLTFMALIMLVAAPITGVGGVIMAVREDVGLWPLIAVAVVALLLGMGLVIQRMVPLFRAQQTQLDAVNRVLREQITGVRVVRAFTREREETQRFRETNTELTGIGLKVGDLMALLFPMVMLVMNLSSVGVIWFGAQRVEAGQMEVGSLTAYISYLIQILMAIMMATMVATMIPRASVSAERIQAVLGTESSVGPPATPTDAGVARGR
T1 chain 2: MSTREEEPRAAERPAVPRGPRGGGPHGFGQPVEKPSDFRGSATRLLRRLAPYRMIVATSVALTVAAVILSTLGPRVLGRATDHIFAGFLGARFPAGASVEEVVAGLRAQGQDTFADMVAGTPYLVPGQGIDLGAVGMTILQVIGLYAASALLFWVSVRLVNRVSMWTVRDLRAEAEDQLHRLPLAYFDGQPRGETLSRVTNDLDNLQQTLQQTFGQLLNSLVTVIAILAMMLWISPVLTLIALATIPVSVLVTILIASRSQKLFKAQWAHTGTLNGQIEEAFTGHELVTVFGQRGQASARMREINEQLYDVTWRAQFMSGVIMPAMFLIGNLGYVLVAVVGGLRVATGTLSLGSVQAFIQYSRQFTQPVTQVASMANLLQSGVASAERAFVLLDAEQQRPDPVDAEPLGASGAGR

The next experiment concerns the target T2, OmrE (OmrE-His) (Omithinimicrobium cerasi strain USBA17B2, UniProt A0A285VWG3 1-661).
T2 construct: OmrE-His calculated as 72.09 kDa; source: E. coli C43 (DE3), purified (DDM-solubilized membrane fraction, Ni2+-NTA agarose)
T2 sequence (looked up): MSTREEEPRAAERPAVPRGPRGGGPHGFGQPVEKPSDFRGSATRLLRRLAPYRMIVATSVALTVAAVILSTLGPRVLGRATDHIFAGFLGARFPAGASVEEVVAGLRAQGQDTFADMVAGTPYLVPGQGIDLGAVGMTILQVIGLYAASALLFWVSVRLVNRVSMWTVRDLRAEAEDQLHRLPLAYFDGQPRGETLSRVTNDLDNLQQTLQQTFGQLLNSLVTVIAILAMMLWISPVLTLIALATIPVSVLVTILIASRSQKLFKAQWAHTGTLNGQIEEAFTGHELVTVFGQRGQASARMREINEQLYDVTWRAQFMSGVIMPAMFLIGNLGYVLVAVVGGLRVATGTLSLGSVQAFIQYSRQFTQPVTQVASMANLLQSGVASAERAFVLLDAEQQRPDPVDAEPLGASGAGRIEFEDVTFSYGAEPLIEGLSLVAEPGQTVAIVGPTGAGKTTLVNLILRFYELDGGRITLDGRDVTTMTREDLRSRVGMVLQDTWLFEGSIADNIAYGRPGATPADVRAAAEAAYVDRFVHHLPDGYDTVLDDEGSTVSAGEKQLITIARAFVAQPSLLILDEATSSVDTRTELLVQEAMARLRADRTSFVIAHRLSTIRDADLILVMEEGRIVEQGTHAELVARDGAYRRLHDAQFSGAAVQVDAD

The target of another experiment is T3, OmrD (OmrD::his-tag) (Omithinimicrobium cerasi strain USBA17B2, UniProt A0A285VW85 1-577).
T3 construct: OmrD-His calculated as 62.86 kDa; also called pET21b-OmrD; source: E. coli C43 (DE3); purified (Ni2+-NTA agarose) for ITC; in DDM-solubilized membrane proteins for the His-tag pull-down
T3 sequence (looked up): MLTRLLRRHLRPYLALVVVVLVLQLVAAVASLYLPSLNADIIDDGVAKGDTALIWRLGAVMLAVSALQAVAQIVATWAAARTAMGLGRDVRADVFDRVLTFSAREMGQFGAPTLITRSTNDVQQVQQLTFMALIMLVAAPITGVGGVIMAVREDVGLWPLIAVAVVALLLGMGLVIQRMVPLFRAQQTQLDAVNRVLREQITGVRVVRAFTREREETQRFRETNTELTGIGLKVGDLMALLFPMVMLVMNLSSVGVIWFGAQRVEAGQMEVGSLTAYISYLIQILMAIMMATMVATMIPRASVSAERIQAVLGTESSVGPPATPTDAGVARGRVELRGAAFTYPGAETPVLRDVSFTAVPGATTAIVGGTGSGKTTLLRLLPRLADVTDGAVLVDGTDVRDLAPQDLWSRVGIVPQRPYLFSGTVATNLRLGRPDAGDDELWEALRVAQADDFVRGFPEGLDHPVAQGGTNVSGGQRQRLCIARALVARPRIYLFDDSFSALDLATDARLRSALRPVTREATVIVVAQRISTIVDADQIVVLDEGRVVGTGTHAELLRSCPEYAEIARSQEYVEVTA

Experiment [2] deals with T4, heterodimeric multidrug resistance ABC transporter OmrDE (Omithinimicrobium cerasi strain USBA17B2, UniProt A0A285VW85 1-577; A0A285VWG3 1-661).
T4 construct: gene codon-optimized and synthesized; also called OmrDE heterodimer; source: E. coli C43 (DE3), OmrD and OmrE co-expressed, purified (DDM-solubilized membrane fraction, Ni2+-NTA agarose)
T4 sequence (looked up) 1: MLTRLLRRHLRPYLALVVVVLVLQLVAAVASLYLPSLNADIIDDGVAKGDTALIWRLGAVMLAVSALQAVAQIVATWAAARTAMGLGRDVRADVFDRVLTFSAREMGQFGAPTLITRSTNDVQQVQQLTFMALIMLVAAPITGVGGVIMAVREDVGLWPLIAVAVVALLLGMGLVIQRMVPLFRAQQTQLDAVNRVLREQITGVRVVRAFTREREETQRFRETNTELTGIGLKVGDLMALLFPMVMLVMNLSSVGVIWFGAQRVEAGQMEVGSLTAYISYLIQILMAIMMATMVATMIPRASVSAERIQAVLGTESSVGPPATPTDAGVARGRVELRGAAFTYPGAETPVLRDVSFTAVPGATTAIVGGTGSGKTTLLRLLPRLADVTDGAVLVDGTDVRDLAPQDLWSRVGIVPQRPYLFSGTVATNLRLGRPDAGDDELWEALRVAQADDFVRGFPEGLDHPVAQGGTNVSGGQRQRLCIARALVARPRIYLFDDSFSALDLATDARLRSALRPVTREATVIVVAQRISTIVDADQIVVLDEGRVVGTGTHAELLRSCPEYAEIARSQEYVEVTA
T4 sequence (looked up) 2: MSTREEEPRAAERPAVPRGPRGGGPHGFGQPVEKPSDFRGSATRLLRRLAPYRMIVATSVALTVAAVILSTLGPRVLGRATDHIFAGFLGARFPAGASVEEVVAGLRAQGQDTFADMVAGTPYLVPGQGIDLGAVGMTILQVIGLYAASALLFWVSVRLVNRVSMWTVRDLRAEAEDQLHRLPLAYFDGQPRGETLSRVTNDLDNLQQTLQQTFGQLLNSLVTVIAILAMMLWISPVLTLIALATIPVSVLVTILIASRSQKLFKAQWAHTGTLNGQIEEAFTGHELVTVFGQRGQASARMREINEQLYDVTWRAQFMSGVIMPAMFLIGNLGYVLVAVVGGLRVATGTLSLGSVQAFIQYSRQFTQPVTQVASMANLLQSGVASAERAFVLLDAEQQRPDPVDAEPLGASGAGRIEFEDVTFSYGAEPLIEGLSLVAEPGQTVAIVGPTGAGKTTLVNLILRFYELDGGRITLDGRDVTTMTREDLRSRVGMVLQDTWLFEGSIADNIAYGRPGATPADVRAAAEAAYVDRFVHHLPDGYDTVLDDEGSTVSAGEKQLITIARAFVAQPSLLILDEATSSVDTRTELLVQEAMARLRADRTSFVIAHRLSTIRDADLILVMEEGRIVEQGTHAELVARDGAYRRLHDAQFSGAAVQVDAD

B1: Omithinimicrobium cerasi strain USBA17B2 heliorhodopsin (OcHeR) WT (natural protein, UniProt A0A285W045 1-266, looked up)
chain: MGSTGTGSTASTTRADESRYAGLRRYNVVAAVVHAAQAVAVVVLATDFTLPMTASYLAGPPGSPPGEAVTLWDVPIPLAIATFLALSALFHVIVASPPFFDRYRRGLAQGHNYFRWVEYSLSSSLMIVIIAQLVGISDVVALLGLFGVNASMILFGWLQEKYHQPGDGGWLPFVFGCLAGAVPWVGIVLYTIAPGSTSGAEPPGFVYGIIVSLFLFFNVFALVQWLQYRPVGRFRDYLLGERLYITLSLVAKSALAWQIFGGTLAT
modifications: retinal Schiff base linked to K252
notes: gene codon-optimized for E. coli and chemically synthesized; source: E. coli C43 (DE3), purified (DDM-solubilized membrane fraction, Ni2+-NTA agarose)
As to B1, the dH was -35.5 kcal/mol in experiment [1], 35.5 kcal/mol with OmrE (OmrE-His) and 48.9 kcal/mol in experiment [2]. For the same molecule, the dissociation constant (Kd) (in general, a measure of binding affinity in units of concentration) came to 35.3 µM with OmrE (OmrE-His), 123 µM in the experiment with OmrD (OmrD::his-tag) and 91.6 µM in experiment [2].
